Columns and labels:
[1] = biological target: His-tagged recombinant human SMN protein (ProteinTech, catalog # ag14333) (human) (UniProt Q16637); experiment: Erenna sandwich assay, capture MABE230; human CSF sample 5 spiked with recombinant SMN 10.0 pg/mL (endogenous SMN also present)
[2] = biological target: His-tagged recombinant human SMN protein (ProteinTech, catalog # ag14333) (human) (UniProt Q16637); experiment: Erenna sandwich assay, capture MABE230; SMN 2 pg/mL, MPs 10 µg/well, Det Ab 500 ng/mL, Cap Ab/MP 12.5 µg/mg
[3] = biological target: His-tagged recombinant human SMN protein (ProteinTech, catalog # ag14333) (human) (UniProt Q16637); experiment: Erenna sandwich assay, capture MABE230; SMN 2 pg/mL, MPs 5 µg/well, Det Ab 100 ng/mL, Cap Ab/MP 25 µg/mg
[4] = biological target: His-tagged recombinant human SMN protein (ProteinTech, catalog # ag14333) (human) (UniProt Q16637); experiment: Erenna sandwich assay, capture MABE230; human CSF sample 3 spiked with recombinant SMN 10.0 pg/mL (endogenous SMN also present)
[5] = biological target: His-tagged recombinant human SMN protein (ProteinTech, catalog # ag14333) (human) (UniProt Q16637); experiment: Erenna sandwich assay, capture MABE230 12.5 µg/mg MPs; Det Ab 500 ng/mL; SMN 3.70 pg/mL
[6] = biological target: His-tagged recombinant human SMN protein (ProteinTech, catalog # ag14333) (human) (UniProt Q16637); experiment: Erenna sandwich assay, capture MABE230 12.5 µg/mg MPs; Det Ab 500 ng/mL; SMN 22.22 pg/mL
[7] = biological target: His-tagged recombinant human SMN protein (ProteinTech, catalog # ag14333) (human) (UniProt Q16637); experiment: Erenna sandwich assay, capture MABE230 12.5 µg/mg MPs; Det Ab 500 ng/mL; SMN 0.23 pg/mL
[8] = biological target: His-tagged recombinant human SMN protein (ProteinTech, catalog # ag14333) (human) (UniProt Q16637); experiment: Erenna sandwich assay, capture MABE230 12.5 µg/mg MPs; Det Ab 1000 ng/mL; SMN 66.67 pg/mL
[9] = biological target: His-tagged recombinant human SMN protein (ProteinTech, catalog # ag14333) (human) (UniProt Q16637); experiment: Erenna sandwich assay, capture MABE230; SMN 2 pg/mL, MPs 10 µg/well, Det Ab 50 ng/mL, Cap Ab/MP 12.5 µg/mg
[10] = biological target: His-tagged recombinant human SMN protein (ProteinTech, catalog # ag14333) (human) (UniProt Q16637); experiment: Erenna sandwich assay, capture MABE230 12.5 µg/mg MPs; Det Ab 500 ng/mL; SMN 1.85 pg/mL
[11] = biological target: endogenous SMN protein in human CSF (human) (UniProt Q16637); experiment: Erenna sandwich assay, capture MABE230; human CSF sample 2, unspiked (endogenous SMN only)
[12] = biological target: His-tagged recombinant human SMN protein (ProteinTech, catalog # ag14333) (human) (UniProt Q16637); experiment: Erenna sandwich assay, capture MABE230 12.5 µg/mg MPs; Det Ab 500 ng/mL; SMN 0.93 pg/mL
[13] = biological target: His-tagged recombinant human SMN protein (ProteinTech, catalog # ag14333) (human) (UniProt Q16637); experiment: Erenna sandwich assay, capture MABE230 12.5 µg/mg MPs; Det Ab 1000 ng/mL; SMN 7.41 pg/mL
[14] = biological target: His-tagged recombinant human SMN protein (ProteinTech, catalog # ag14333) (human) (UniProt Q16637); experiment: Erenna sandwich assay, capture MABE230; SMN 2 pg/mL, MPs 10 µg/well, Det Ab 1000 ng/mL, Cap Ab/MP 12.5 µg/mg
[15] = biological target: His-tagged recombinant human SMN protein (ProteinTech, catalog # ag14333) (human) (UniProt Q16637); experiment: Erenna sandwich assay, capture MABE230; human CSF sample 2 spiked with recombinant SMN 5.0 pg/mL (endogenous SMN also present)
[16] = biological target: His-tagged recombinant human SMN protein (ProteinTech, catalog # ag14333) (human) (UniProt Q16637); experiment: Erenna sandwich assay, capture MABE230; SMN 2 pg/mL, MPs 10 µg/well, Det Ab 100 ng/mL, Cap Ab/MP 25 µg/mg
[17] = biological target: His-tagged recombinant human SMN protein (ProteinTech, catalog # ag14333) (human) (UniProt Q16637); experiment: BLI (BLItz), His-tagged SMN immobilised on the biosensor tip, antibody in solution
[18] = biological target: endogenous SMN protein in human CSF (human) (UniProt Q16637); experiment: Erenna sandwich assay, capture MABE230; human CSF sample 4, unspiked (endogenous SMN only)
[19] = biological target: His-tagged recombinant human SMN protein (ProteinTech, catalog # ag14333) (human) (UniProt Q16637); experiment: Erenna sandwich assay, capture MABE230 12.5 µg/mg MPs; Det Ab 1000 ng/mL; SMN 0.46 pg/mL
[20] = biological target: His-tagged recombinant human SMN protein (ProteinTech, catalog # ag14333) (human) (UniProt Q16637); experiment: Erenna sandwich assay, capture MABE230; human CSF sample 1 spiked with recombinant SMN 10.0 pg/mL (endogenous SMN also present)
[21] = biological target: His-tagged recombinant human SMN protein (ProteinTech, catalog # ag14333) (human) (UniProt Q16637); experiment: Erenna sandwich assay, capture MABE230 12.5 µg/mg MPs; Det Ab 500 ng/mL; SMN 7.41 pg/mL
[22] = biological target: His-tagged recombinant human SMN protein (ProteinTech, catalog # ag14333) (human) (UniProt Q16637); experiment: Erenna sandwich assay, capture MABE230; human CSF sample 4 spiked with recombinant SMN 10.0 pg/mL (endogenous SMN also present)

“ProteinTech anti-SMN2 (catalog #60154-1-Ig) (antibody)” showed a detected events (DE) (detected events) [1] of 9440, a detected events (DE) (detected events) [2] of 2120 and a detected events (DE) (detected events) [3] of 817. For the same substance, the detected events (DE) (detected events) [4] was 9140, the detected events (DE) (detected events) [5] was 3190 and the event photons (EP) (event photons) [5] was 497000. For the same substance, the detected events (DE) (detected events) [6] was 12200, the event photons (EP) (event photons) [6] was 3.85e+06 and the detected events (DE) (detected events) [7] was 301. The event photons (EP) (event photons) [7] was 40000, the detected events (DE) (detected events) [8] was 11500 and the event photons (EP) (event photons) [8] was 1.06e+07. It also gave a detected events (DE) (detected events) [9] of 681, a detected events (DE) (detected events) [10] of 1850 and an event photons (EP) (event photons) [10] of 267000. The detected events (DE) (detected events) [11] was 240, the detected events (DE) (detected events) [12] was 967 and the event photons (EP) (event photons) [12] was 135000. It also gave a detected events (DE) (detected events) [13] of 7200, an event photons (EP) (event photons) [13] of 1.32e+06 and a detected events (DE) (detected events) [14] of 2920. The detected events (DE) (detected events) [15] was 5310, the detected events (DE) (detected events) [16] was 1130 and the Kd [17] was < 1 pM. The koff [17] was < 1e-07 s⁻¹, the kon [17] was 118000 M⁻¹ s⁻¹ and the detected events (DE) (detected events) [18] was 375. For the same substance, the detected events (DE) (detected events) [19] was 630, the event photons (EP) (event photons) [19] was 87400 and the detected events (DE) (detected events) [20] was 9730. The detected events (DE) (detected events) [21] was 5960, the event photons (EP) (event photons) [21] was 1.05e+06 and the detected events (DE) (detected events) [22] was 8660.

From patent US20170363643A1
